Source: US20060099210

Tests used:
[1] = system: GST-2E11 (fusion protein between GST and a KCNQ2-15b polypeptide comprising exons 13, 14 and 15b; encoded by pGEX-2TK-2E11)
[2] = system: GST (glutathione S-transferase expressed from the pGEX2TK plasmid; negative control) [GST: P08515]
Chain of GST (glutathione S-transferase expressed from the pGEX2TK plasmid; negative control) [GST: P08515] (P08515 whole entry): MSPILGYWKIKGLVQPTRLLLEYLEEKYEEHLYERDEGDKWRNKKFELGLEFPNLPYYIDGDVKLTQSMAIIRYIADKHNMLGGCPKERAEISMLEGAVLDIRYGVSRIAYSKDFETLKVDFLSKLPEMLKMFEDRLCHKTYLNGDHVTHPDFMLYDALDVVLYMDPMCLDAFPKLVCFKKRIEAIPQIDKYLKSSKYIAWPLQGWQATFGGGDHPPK

Chain of GST-2E11 (fusion protein between GST and a KCNQ2-15b polypeptide comprising exons 13, 14 and 15b; encoded by pGEX-2TK-2E11) (chain, as listed by the source): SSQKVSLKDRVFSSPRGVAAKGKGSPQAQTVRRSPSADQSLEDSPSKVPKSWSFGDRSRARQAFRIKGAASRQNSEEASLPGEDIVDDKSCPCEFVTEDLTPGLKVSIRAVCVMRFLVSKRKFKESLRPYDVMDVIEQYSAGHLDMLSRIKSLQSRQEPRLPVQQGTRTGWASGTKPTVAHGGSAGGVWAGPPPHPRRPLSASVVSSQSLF

| Substance | in vitro phosphorylation with [32P]γATP, SDS-PAGE and autoradiography [1] | in vitro phosphorylation with [32P]γATP, SDS-PAGE and autoradiography (negative control with GST instead of GST-2E11) [2] | in vitro phosphorylation in the presence of 5 µg of CREB phosphopeptides as competitor [1] |
| --- | --- | --- | --- |
| Protein Kinase A Catalytic Subunit (PKA from bovine heart, Sigma) | a band located at a position corresponding to a protein of a size of about 45 kD did appear | No bands appeared in the three lines corresponding to the negative controls |  |
| recombinant GSK-3β kinase (New England Biolabs) | a band located at a position corresponding to a protein of a size of about 45 kD did appear | No bands appeared in the three lines corresponding to the negative controls | A band did still appear at a position corresponding to the size of GST-2E11, but the intensity of the band was very significantly lower |
